Laboratory results from patent publication US12630596B2, “Engineered lysin-human defensin protein” (priority 2018, dated 2026).

Experiments:
[1] = test system: C. difficile strains M120, VPI 10463, CD630, LC693, 1377; test: Optical drop assay, lytic activity on other clinical epidemic C. difficile strains; assay type: cell-based, Clostridium difficile
From the text: C. difficile strains R20291 (ribotype 027), M120 (ribotype 078), VPI 10463 (ribotype 087; ATCC 43255), CD630 (ribotype 012), LC693 (ribotype unknown, ST201), and 1377 (ribotype 012) were used in this study. Strains M120 and VPI 10463 were provided by Dr. Joseph A. Sorg from Texas A&M University. Strains R20291 and CD630 were provided by Dr. Abraham L. Sonenshein from Tufts University. Strains 1377 and LC693 were epidemic clinical strains in China (Li, Liu et al. 2015, Peng, Liu et al. 2017).
The lytic activity of proteins LHD and LCD against C. difficile strains was determined as previously described (Wang, Euler et al. 2015). Briefly, C. difficile strains were cultured in an anaerobic chamber to mid-log phase, and the bacterial pellets were harvested by centrifugation at 3000×g for 5 min. Pellets were washed twice and re-suspended in sterilized ddH2O, and resuspensions were not buffered. Prior to tests, bacterial optical density at 600 nm (OD600) was adjusted to approximately 0.8-1.0. Proteins LHD and LCD were added into the cell re-suspension with the final concentration of 200 μg/ml. The drop in OD600 at 37° C. was measured every 10 minutes for 60 min˜90 min. Bacterial re-suspension with sterilized water was also set as a control. Three repeats were included in each test.

C. difficile R20291 [2] = test: Lytic activity of LHD on R20291 in different pH conditions; assay type: cell-based, Clostridium difficile
Method: Prior to tests, bacterial optical density at 600 nm (OD600) was adjusted to approximately 0.8-1.0. Protein LHD was added into the cell re-suspension with the final concentration of 200 μg/ml. The drop in OD600 at 37° C. was measured once per 20 minutes for 60 min. Bacterial re-suspension with sterilized water was also set as a control. Data are present as “Mean±SD”. Experiments were repeated 3 times, and representative data were shown.
Prior to tests, bacterial optical density at 600 nm (OD600) was adjusted to approximately 0.8-1.0. Protein LHD was added into the cell re-suspension with the final concentration of 100 μg/ml. The drop in OD600 at 37° C. was measured once per 20 minutes for 60 min. Bacterial re-suspension with sterile water was also set as a control. Experiments were repeated 3 times, and representative data were shown. […]

C. difficile R20291 [3] = test: Lytic activity of LHD after incubation with mouse intestinal contents; assay type: in vitro ADME; settings: 37° C., 1 hr
Method: Protein LHD was incubated with mouse intestinal contents at 37° C. for 15, 30 or 60 minutes, then optical drop assays were performed on C. difficile R20291 to test the lytic activity of LHD at a concentration of 100 μg/ml. Experiments were repeated 3 times, and representative data were shown.
To appreciate the stability and activity of LHD in the mouse intestine, […] was incuated with freshly prepaerd mouse intestinal contents for 15 min, 30 min and 60 min, and retrived by centrifugation. Lytic activities of LHD treated with intestinal contents were determined on strain C. difficile R20291 as described above.

B1: LHD: Fusion of phage phiC2 lysin catalytic domain (LCD, 179aa), (GGGGS)3 linker and human alpha-defensin 5; SEQ ID NO:1 (protein)
chain: MKICITVGHSILKSGACTSADGVVNEYQYNKSLAPVLADTFRKEGHKVDVIICPEKQFKTKNEEKSYKIPRVNSGGYDLLIELHLNASNGQGKGSEVLYYSNKGLEYATRICDKLGTVFKNRGAKLDKRLYILNSSKPTAVLIESFFCDNKEDYDKAKKLGHEGIAKLIVEGVLNKNINGGGGSGGGGSGGGGSATCYCRTGRCATRESLSGVCEISGRLYRLCCR
[1]; different types of clinical epidemic strains, 200 μg/ml
  lytic activity (drop in OD600): potent lytic activities
[1]; strain M120, p<0.05
  lytic activity compared with LCD: more potent than LCD
[1]; strains VP110463, CD630, LC693 and 1377
  lytic activity compared with LCD: slightly more potent
C. difficile R20291 [2]; PH of 5, R20291
  lytic activity at pH: partially active
C. difficile R20291 [2]; PHs of 2, 3, and 4, R20291
  lytic activity at pH: lost almost all activity
C. difficile R20291 [2]; PHs of 6 and 7, 200 μg/ml, R20291
  lytic activity at pH: more efficiently
C. difficile R20291 [3]
  lytic activity after treatment with intestinal contents: did not affect lytic activity
